In the assay the target is Full-length human AURKA^T288V (human, UniProt O14965 1-403, T288V). The assay can be described thus: FP; competition with FITC-Tpx2 1-43.
Full-length human AURKA^T288V, sequence (O14965 other isoform, or with tags, fused parts or gaps T288V | T288V): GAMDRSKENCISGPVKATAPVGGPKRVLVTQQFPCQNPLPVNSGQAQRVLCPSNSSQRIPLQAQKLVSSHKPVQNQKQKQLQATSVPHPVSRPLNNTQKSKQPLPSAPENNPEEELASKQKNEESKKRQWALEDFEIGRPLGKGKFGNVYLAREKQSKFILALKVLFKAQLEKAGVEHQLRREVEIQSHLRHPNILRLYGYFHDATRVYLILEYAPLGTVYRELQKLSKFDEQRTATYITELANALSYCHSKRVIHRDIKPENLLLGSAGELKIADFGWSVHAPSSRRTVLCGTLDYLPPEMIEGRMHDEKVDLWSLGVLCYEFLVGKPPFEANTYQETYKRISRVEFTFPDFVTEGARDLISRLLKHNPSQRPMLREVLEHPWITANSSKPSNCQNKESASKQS

B1: pBora^18–120 (domain or fragment)
chain: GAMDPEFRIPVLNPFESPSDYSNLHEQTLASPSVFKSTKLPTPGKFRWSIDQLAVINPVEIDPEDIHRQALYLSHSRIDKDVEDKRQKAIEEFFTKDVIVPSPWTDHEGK
modifications: phosphorylated (kinase and sites not stated for the fluorescence polarisation assay)
A word on the IC50: it is the concentration at which inhibition is half-maximal. Read a high IC50 as weaker potency in that assay. B1 showed an IC50 of 680 nM.

(Values after paper PMC7997955 (2021).)
